Experimental data taken from PMC6321254.

How the values were obtained:
HA-CXCR1-RLuc (human) [1] = biological target: HA-CXCR1-RLuc (human) (UniProt P25024)
HA-CXCR1-RLuc (human) [2] = biological target: HA-CXCR1-RLuc (human) (UniProt P25024); remark: listed apart in the source
HA-CXCR1-RLuc (human) [3] = biological target: HA-CXCR1-RLuc (human) (UniProt P25024); remark: listed apart in the source

HA-CXCR1-RLuc (human), sequence (P25024 2-350): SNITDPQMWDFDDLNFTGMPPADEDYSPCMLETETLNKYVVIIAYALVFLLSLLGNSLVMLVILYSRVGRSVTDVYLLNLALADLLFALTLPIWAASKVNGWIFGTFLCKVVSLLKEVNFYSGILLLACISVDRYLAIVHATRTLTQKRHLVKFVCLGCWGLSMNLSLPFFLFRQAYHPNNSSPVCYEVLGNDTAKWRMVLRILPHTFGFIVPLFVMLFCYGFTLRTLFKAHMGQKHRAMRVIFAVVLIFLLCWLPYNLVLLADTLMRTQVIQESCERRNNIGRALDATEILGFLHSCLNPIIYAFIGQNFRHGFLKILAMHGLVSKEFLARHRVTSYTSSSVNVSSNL

CXCL8(6-77) (ligand) gave a Gαi-dependent reduction of forskolin-raised cAMP (AlphaScreen cAMP assay) in HEK-293T cells transfected with CXCR1 (pcDNA6 construct without RLuc); 0.1-100 nM; potency against CXCL8(1-77) (fold (against CXCL8(1-77))) (HA-CXCR1-RLuc (human) [1]) greater than 10 and a potency to induce recruitment of β-arrestin 2-EYFP to CXCR1-RLuc (BRET dose-response, HEK-293T), against CXCL8(1-77) (fold (against CXCL8(1-77))) (HA-CXCR1-RLuc (human) [2]) of 10.
[Cit5]CXCL8(1-77) (ligand) was tested, and the Gαi-dependent reduction of forskolin-raised cAMP (AlphaScreen cAMP assay) in HEK-293T cells transfected with CXCR1 (pcDNA6 construct without RLuc); 0.1-100 nM; potency against CXCL8(1-77) (fold (against CXCL8(1-77))) (HA-CXCR1-RLuc (human) [1]) was greater than 10.
Work on CXCL8(1-77) (ligand) yielded an internalization of endogenous CXCR1 on freshly purified human neutrophils (flow cytometry of surface receptor; 0.1-100 nM, 1 h, 37 °C); lowest concentration with a significant effect (HA-CXCR1-RLuc (human) [3]) greater than 10 nM.
